From article PMC11428423 (2024)

T1: MT-C34 peptide conjugated to bovine serum albumin (BSA-MT-C34 conjugate) (HIV-1, covalently conjugated to bovine serum albumin by the sulfo-SMCC linker)
T1 chain: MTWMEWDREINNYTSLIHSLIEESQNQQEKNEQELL


Legend:
[1] = target: T1, MT-C34 peptide conjugated to bovine …; assay: ELISA; replicate mAb-3, slope x 10^-8 M
[2] = target: T1, MT-C34 peptide conjugated to bovine …; assay: ELISA; replicate chAb-1, slope x 10^-8 M

Binder | Kd [1] | Kd [2]
C24-6 mouse monoclonal antibody against the MT-C34 peptide (mAb) (antibody, V domains shown) VH: EVQLVESGGDLVKPGGSLKLSCAASGFTFSRFGMSWGRQTPDKRLEWVATISTGGSYTYYPDSVKGRFTISRDNAKNSLYLQMSSLKSEDTAMYYCARHDDTAVYAMDYWGQGTSVTVSS VL: DVVMTQTPLSLPVSLGDQASISCRSSQSLVHSDGDTYLHWYLQKPGQSPKLLIYKVSNRFSGVPDRFSGSGSGTDFTLKISRAEAEDLGVYFCSQSTHVPLTFGAGTKLELK | 2.26 nM | 
human chimeric anti-MT-C34 antibody (chAb) (antibody, V domains shown) VH: EVQLVESGGDLVKPGGSLKLSCAASGFTFSRFGMSWGRQTPDKRLEWVATISTGGSYTYYPDSVKGRFTISRDNAKNSLYLQMSSLKSEDTAMYYCARHDDTAVYAMDYWGQGTSVTVSS VL: DVVMTQTPLSLPVSLGDQASISCRSSQSLVHSDGDTYLHWYLQKPGQSPKLLIYKVSNRFSGVPDRFSGSGSGTDFTLKISRAEAEDLGVYFCSQSTHVPLTFGAGTKLELK |  | 1.14 nM
